Results on six molecules are retold here after patent US20140187743A1, “SURFACE-ACTIVE COLLAGEN MEMBRANE BY PEPTIDE” (priority 2011, published 2014).

One series relates to E. coli. The experiment in a line: Antibacterial test by agar diffusion method, inhibition diameter of peptide-bound collagen membrane. The series is classed as cell-based. To be noted: for Antibacterial activity (inhibition diameter) of peptide-bound collagen membrane: incubated for 3 days on E. coli plate. Here is the method: In another example of the present invention, in order to examine the antibacterial activity of an antibacterial fusion peptide that binds specifically to collagen, a collagen membrane was prepared using each of the peptides of SEQ ID NO: 1, the peptide of SEQ ID NO: 26 and the peptide of SEQ ID NO: 29 in the same manner as described in Example 2. The prepared collagen membrane was washed in PBS for 1 hour and dried in air. To evaluate the antibacterial activity of the peptide, an antibacterial test was performed according to an agar diffusion method. Specifically, E. coli cells were cultured in TSB medium until the absorbance at 620 nm reached 1, and then the cells were harvested and used in the test. The harvested cells were diluted with PBS, and 10^5-10^7 bacterial cells per ml were plated on a TSA plate and incubated at 37° C for 24 hours. On the plate having the incubated bacterial cells thereon, a collagen membrane having each of the peptides of SEQ ID NOS: 1, 26 and 29 bound thereto was placed and incubated for 3 days. Then, the inhibition diameter against the growth of the bacterial cells was measured. […] Using each of the peptides of SEQ ID NOS: 1, 26 and 29, collagen membranes were prepared in the same manner as described in Example 2. Each of the prepared collagen membranes was allowed to stand in 10 ml of PBS for 1 hour and dried in air. To evaluate the antibacterial activity of the peptides, an antibacterial test was performed according to the agar diffusion method. Specifically, E. coli cells were cultured in TSB (tryptic soy broth) medium until the absorbance at 620 nm reached 1, and then the cells were harvested and used in the test. The harvested cells were diluted with PBS, and 10^5-10^7 bacterial cells per ml were plated on a TSA plate and incubated at 37° C. for 24 hours. On the plate having the incubated bacterial cells thereon, a collagen membrane having each of the peptides of SEQ ID NOS: 1, 26 and 29 bound thereto was placed and incubated for 3 days, and then the inhibition diameter against the bacterial cells was inhibited was measured.
On the technique in general: A growth-free zone around the sample is the usual read-out of agar diffusion tests.

In a further series the test system is collagen membrane. The experiment in a line: Peptide release (elution) test from collagen membrane in PBS, HPLC. The series is classed as binding, porcine. To be noted: for Release of the peptide from collagen membrane: eluate in PBS at 37° C. How it is done: In still another example of the present invention, in order to examine the collagen-binding ability of the fusion peptide that binds specifically to collagen, porcine sink-derived collagen was dissolved in 0.1M HCl at a concentration of 1%(w/v), the pH was neutralized, and the collagen solution was concentrated to 4% by evaporating the solvent. To prepare a membrane, the concentrated collagen solution was poured into a […] diameter dish and mixed, and to prepare a three-dimensional scaffold, the collagen solution was poured onto a 24-well plate for cell culture and mixed. Next, 1% glutaraldehyde or 1% glyceraldehyde was added to crosslink the collagen solution, which was then washed with distilled water and freeze-dried. The resulting membrane having a size of 1×1 cm and a thickness of 250 μm was wet with 10 mg of the fusion peptide of SEQ ID NO: 24 in 100 μl of DW, washed with PBS and freeze-dried. The collagen membrane having the peptide bound thereto was added to PBS and subjected to a peptide release teat at 37° C. After 7 days, 10 ml of the elution solvent added was completely removed, after which 10 ml of a fresh elution solvent was added to the collagen membrane which was then eluted at 37° C. for 4 weeks. After completion of the elution, the membrane was collected and the peptide content thereof was measured.
1 g of porcine skin-derived collagen was dissolved in 100 ml of 0.1M HCl at a concentration of 1%(w/v), and then the pH of the collagen solution was neutralized, and the solvent was evaporated to the collagen solution to 4%.
In order to prepare a membrane, 8 ml of the concentrated collagen solution was poured in a […]-diameter dish and mixed, and in order to prepare a three-dimensional scaffold, 1 ml of the collagen solution was poured in a 24-well plate for cell culture and mixed. Then, 1% glutaraldehyde or 1% glyceraldehydes was added to crosslink the collagen solution, and the crosslinked collagen was washed with distilled water and freeze-dried (see FIG. 1).
0.038 g of the prepared membrane having a size of 1×1 cm and a thickness of 250 μm fall was wet with 10 mg of the fusion peptide of SEQ ID NO: 24 in 100 μl of deionized water (DW), allowed to stand at 4° C. for 8 hours, washed with PBS, and freeze-dried. The collagen membrane having the peptide bound thereto was added to 10 ml of PBS and subjected to a peptide release test at 37° C.
After 7 days, 10 ml of the elution solvent added was completely removed, and then 10 ml of a fresh elution solvent was added to the collagen membrane which was then eluted at 37° C. for 4 weeks. After completion of the elution, the membrane was collected and the peptide content thereof was measured.
0.038 g of the membrane having the peptide bound thereto was precisely weighed, and 5 ml of mobile phase solvent A was added thereto, followed by sonication for 1 hour. Next, 5 ml of mobile phase solvent B was added to and mixed with the membrane solution, and then the mixture was centrifuged at 4500 rpm for 30 minutes. 1 ml of the supernatant was taken and filtered through a 0.22 millipore filter to obtain a sample solution.
A peptide standard was dried in a desiccator (silica gel) for 5 hours, and about 10 mg of the dried peptide was dissolved in mobile phase solvent A. 10 ml of the solution was used as a standard solution. […]

The subject of series [1] is circular skull defect of rabbits. Put plainly: In vivo bone regeneration of peptide-bound collagen membrane in circular skull defect. To be noted: 8 mm circular skull defect, 4 weeks after transplantation; compared to membranes with SEQ ID NO: 1 or 9. Also noted: species or system New Zealand white rabbits. The text has this:
In still another example of the present invention, in order to examine the in vivo bone regeneration ability of the fusion peptide that binds to the collagen membrane and has the ability to regenerate bone tissue, each of the peptides of SEQ ID NOS: 1, 9 and 24 was bound to the collagen membrane, and then transplanted into the circular skull defect of rabbits, and the bone regeneration ability was examined. Specifically, a circular bone defect having a diameter of 8 mm was formed in the skull of anesthetized rabbits and covered with the collagen membrane, and the periosteum and the skin were doubly sutured. At 4 weeks after the transplantation, the animal was sacrificed, and the collected sample was fixed in a formalin solution. The tissue was embedded to prepare a sample having a thickness of 20 μm. The sample was stained with fuchsin and toluidine blue to prepare a nondemineralized sample. […] Each of the peptides of SEQ ID NOS: 1, 9 and 24, prepared in Example 1, was bound to a collagen membrane according to the method of Example 2, and then transplanted into the circular skull defect of rabbits, and the bone regeneration ability was examined. […]

For series [2] the following is noted: rabbit, in vivo. The source says:
In still another example of the present invention, in order to examine the in vivo stability of the fusion peptide that binds to collagen and has the ability to regenerate bone tissue, the peptide of SEQ ID NO: 24 labeled with FITC was bound to the collagen membrane which was then transplanted into a rabbit skull defect. […] Before and at days 1, 3, 7, 14, 21 and 28 after the membrane bound to the peptide of SEQ ID NO: 24 labeled with FITC was transplanted into the rabbit skull defect, the blood was collected and whether the peptide was released into the systemic blood was measured using a fluorometer. […] The peptide of SEQ ID NO: 24 labeled with FITC was bound to a collagen membrane in the same manner as described in Example 2. The collagen membrane was transplanted into the skull defect of a rabbit, and after 4 weeks, the membrane transplanted into the skull defect was observed by confocal microscopy (Olympus, Japan). Before and at days 1, 3, 7, 14, 21 and 28 after 10 mg of the peptide of SEQ ID NO: 24 labeled with FITC was transplanted into the rabbit skull defect, the blood was collected and whether the peptide was released into the systemic blood was measured using a fluorometer.

Series [3] deals with collagen membrane prepared from porcine skin-derived collagen (porcine). The experiment in a line: release test in PBS at 37 C, HPLC of the eluate.
For series [4] the target is unchanged. The experiment in a line: HPLC of peptide extracted from the membrane after 4 weeks of elution in PBS at 37 C.
The mark [5] stands for this setting: after washing in PBS for 1 hour.

Where “and” joins values, the source holds several entries; their conditions need not be identical. Identical values can stand only once. Where no end group is shown, it is not given here. The star is where a group is joined. FITC = O=C1OC2(c3ccc(O)cc3Oc3cc(O)ccc32)c2ccc(NC(=S)*)cc21

Chain of collagen membrane prepared from porcine skin-derived collagen (porcine) (P12675 whole entry): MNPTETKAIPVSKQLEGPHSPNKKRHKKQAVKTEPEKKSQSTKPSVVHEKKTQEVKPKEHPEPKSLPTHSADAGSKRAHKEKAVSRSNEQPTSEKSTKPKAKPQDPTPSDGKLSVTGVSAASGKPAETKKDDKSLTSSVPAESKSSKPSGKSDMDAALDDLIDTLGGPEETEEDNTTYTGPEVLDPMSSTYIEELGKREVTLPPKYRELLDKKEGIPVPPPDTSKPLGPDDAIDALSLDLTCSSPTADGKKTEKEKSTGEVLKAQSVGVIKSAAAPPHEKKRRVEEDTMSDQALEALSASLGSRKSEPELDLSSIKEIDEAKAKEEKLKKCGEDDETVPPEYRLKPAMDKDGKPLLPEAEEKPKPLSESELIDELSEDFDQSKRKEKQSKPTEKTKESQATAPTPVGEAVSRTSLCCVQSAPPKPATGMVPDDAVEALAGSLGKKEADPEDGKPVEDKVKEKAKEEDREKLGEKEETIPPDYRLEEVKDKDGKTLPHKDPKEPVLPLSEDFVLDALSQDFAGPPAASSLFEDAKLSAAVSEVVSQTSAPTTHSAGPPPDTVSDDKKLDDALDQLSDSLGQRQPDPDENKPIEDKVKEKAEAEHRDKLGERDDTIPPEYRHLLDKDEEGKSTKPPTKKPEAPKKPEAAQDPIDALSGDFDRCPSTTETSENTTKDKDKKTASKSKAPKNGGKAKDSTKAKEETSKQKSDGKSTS

On to “GKCSTRGRKCCRRKK (hBD3-3) [SEQ ID NO: 26, antibacterial peptide derived from human beta-defensin-3]”, for which, in the series with E. coli (after washing in PBS for 1 hour versus before washing), the “Decrease of antibacterial activity after washing” value is given as “about 50%”. Moreover, the “Antibacterial activity (inhibition diameter) of peptide-bound collagen membrane” value with E. coli (before washing) is “highest antibacterial activity”.

“GLRSKSKKFRRPDIQYPDA (Collagen Binding Peptide) [SEQ ID NO: 1]”: the “Antibacterial activity (inhibition diameter) of peptide-bound collagen membrane” value with E. coli (setting [5]) and with E. coli (before washing) was “no antibacterial activity” each time.

In the case of “GLRSKSKKFRRPDIQYPDAGKCSTRGRKCCRRKK (Collagen Binding Peptide; hBD3-3) [SEQ ID NO: 29]”, the “Antibacterial activity (inhibition diameter) of peptide-bound collagen membrane” value in the series on E. coli (setting [5]) is “maintained its antibacterial activity”.

In the case of “GLRSKSKKFRRPDIQYPDARHPLYVDFSDVGWNDWIVA (Collagen Binding Peptide) [SEQ ID NO: 24]”, the “Peak of the peptide in the eluate” value in the series on collagen membrane (4 week elution test, retention time of 13 minutes, Lot Nos. 1, 2 and 3) is reported as “not observed”. In addition, the “Content of the peptide remaining on collagen membrane” value with collagen membrane (after completion of the 4 week elution at 37° C., Lot Nos. 1-3, 10 mg peptide loaded) was 9.2 mg and 9.43 mg and 9.68 mg and 9.20 mg. Besides, the “Release of the peptide from collagen membrane” value was 0 mg in the series with collagen membrane (day 7, Lot Nos. 1-3, 10 mg peptide loaded); 0 mg in the series with collagen membrane (day 14, Lot Nos. 1-3, 10 mg peptide loaded); 0 mg with collagen membrane (day 28, Lot Nos. 1-3, 10 mg peptide loaded). Besides, in series [1], the “Bone regeneration ability of the collagen membrane having the peptide bound” value is on record as “increased”.

Regarding “SEQ ID NO: 24 labeled with FITC: FITC (fluorescein isothiocyanate) bound to the N-terminus of the peptide of SEQ ID NO: 24 ({FITC}-GLRSKSKKFRRPDIQYPDARHPLYVDFSDVGWNDWIVA)”, the “Spread of the peptide to the surrounding tissue (confocal microscopy)” value in series [2] is “did not spread to the surrounding tissue”.

B1: fusion peptide of SEQ ID NO: 24 (fusion peptide for bone tissue regeneration that binds specifically to collagen) (peptide)
peptide: GLRSKSKKFRRPDIQYPDARHPLYVDFSDVGWNDWIVA
As to B1, the peptide released from collagen membrane in series [3] came out at 0 mg. Further, in series [4], the content of the peptide remaining on collagen membrane (of 10 mg applied) is 9.2 mg and 9.43 mg and 9.68 mg.
